According to US12209142B2, “SARS-CoV-2 epitope-targeted peptide immunostimulants” (Institute for Systems Biology, priority 2020, dated 2025):
Entries after “also recorded” stand apart in the source; their conditions may differ. Bridges are numbered along the chain shown (N, C = ends). Where no end group is shown, it is not given here. [ ]: non-standard residue; d: D form. Lys(N3) = [N-]=[N+]=NCCCC[C@H](N)C(=O)O; Pra = C#CC[C@H](N)C(=O)O

Tests used:
[1] = molecular target: T1, full-length recombinant MrkA protein (Klebsiella pneumoniae, UniProt P12267); assay: Sandwich ELISA of PCC binding to full-length MrkA
T1 construct: purchased MyBiosource MBS1248970
Experimental: The screen yielded 26 hits (Table 2) that were sequenced, scaled up, and tested for binding to full-length recombinant MrkA in solution by single-point sandwich Enzyme-linked immunoassays (ELISAs) (FIG. 8). HPraGly is present before X1 in each peptide and Az4 follows X5 in each peptide.
An alanine scan was performed to establish which residues of cy(LLFFF) (SEQ ID NO:5) contribute most to MrkA binding. In this assay, a sandwich ELISA is used to quantify the affinity of several cy(LLFFF) (SEQ ID NO:5) analogues, in which one residue is substituted with an alanine, towards full-length MrkA protein. The ELISA results in FIG. 4 show lower signal for every alanine-substituted cy(LLFFF) (SEQ ID NO:5) analogue compared to unmodified cy(LLFFF) (SEQ ID NO:5), establishing that the native compound has the highest affinity. […] Thus, these two C-terminal phenylalanine residues (FIG. 3A, arrows in inset) play critical roles in MrkA binding, and are targets for modifications to improve binding. Another important detail of these alanine scan results is a strong dependence of MrkA binding on the residue position, independent of residue type. For example, cy(LLAFF) (SEQ ID NO:9) and cy(LLFFA) (SEQ ID NO:11) have very different binding affinities, despite having the same phenylalanine-to-alanine substitution.
In vitro ELISA assays. ELISA assays for MrkA-binding and epitope selectivity were performed on clear NeutrAvidin Coated High Capacity Plates (ThermoFisher, 15507). The buffer used for all washes and to dissolve all compounds was TBST+0.1% BSA (TBS+0.05% Tween 20+0.1% BSA, pH 7.3) and, unless otherwise stated, steps were conducted at room temperature. Each wash involved a brief 20 s agitation, and all conjugation, blocking, and incubation steps were performed with gentle agitation over the entire stated time period. The general procedure for an ELISA assay was: wash 3×200 μL/well, conjugate with 2 μM of biotinylated compound for 2 h at room temperature (100 μL/well), wash 3×200 μL/well, blocked overnight in 5 wt % milk at 4° C., wash […] with wash buffer, incubate with titrated compound (e.g., MrkA or epitope) for 1 h, […], incubate with primary antibody […] for 1 h (100 μL/well), wash 3×200 μL/well, incubate with 1:2,000 anti-rabbit secondary antibody-horseradish peroxidase conjugate (Cell signaling Technologies, 7074S) for 1 h, 3×200 μL/well, develop with the Microwell Peroxidase Substrate System (2-C) (SeraCare, 5120-0047) using 100 μL/well for 1-40 minutes, and quench using 1 M H2SO4 (aq.) at 100 μL/well. For MrkA binding assays, biotinylated PCCs were conjugated to the well surface, recombinant MrkA with an N-terminal 6×His-SUMO-tag (MyBiosource, MBS1248970) was titrated at the desired concentration, and the primary antibody was His-tag antibody, pAb, Rabbit (Genscript, A00174) at a 1:5,000 dilution. For epitope selectivity assays, biotinylated SynEps were conjugated, DNP-conjugated AR-PCCs were titrated at a desired concentration, and the primary antibody was anti-DNP antibody produced in Rabbit (Sigma-Aldrich, D9656) at a 1:8,000 dilution. […] For binding tests in the context of mouse sera, the “titrated compound” described in the steps above was dispersed in a solution containing the desired concentration of mouse serum.

[2] = Isocratic point of PCCs (C18 prep-scale column elution); type: physicochemical
From the text: The efficacy of AR-PCCs in vivo will not only depend on target binding, but also pharmacokinetic (PK) properties, of which clearance pathway is an important parameter. […] Modifications include single- and double-residue substitutions, residue removal, and the addition of non-ionic PEG and charged poly-arginine tags (Ri, where i represents the number of arginine). Results of this optimization are shown in FIG. 4B, which plots IP versus the affinity of the compound to MrkA, relative to cy(LLFFF) (SEQ ID NO:5).
PCC compounds were purified on a Waters Autopurification system, which isolated compounds based on MS peaks corresponding to protonated [M+1H]^+ and [M+2H]^2+, and/or sodium adducts [M+Na]^+ and [M+2Na]^2+. The isocratic points of PCCs were determined based on the elution of the compound from a C18 prep-scale column. Synthetic epitopes were either purified on the Waters Autopurification System, or by semi-preparative HPLC and then using matrix-assisted laser desorption/ionization mass spectroscopy to identify fractions with the desired m/z ratio. The resulting peptides were lyophilized, the yield determined by mass difference or UV-visible absorbance, and resuspended at a concentration of up to 10 mM peptide in DMSO. Peptides were stored at −80° C. before thawing for each use.

[3] = test system: K. pneumoniae cells (strain BAA 2146); assay: Flow cytometry of AR-PCC-driven opsonization by anti-DNP antibodies; type: cell-based, Klebsiella pneumoniae; conditions: cy(LLFFF)-DNP 1 or 5 μM, cy(HNGPT) control 50 μM, plus fluorescent anti-DNP
[4] = test system: K. pneumoniae cells (strain BAA 1705); assay: Gentamicin protection assay: phagocytosis and opsonophagocytic killing (OPK) by macrophages; type: cell-based, Klebsiella pneumoniae
Experimental: FIGS. 7A and 7B show a gentamicin protection assay that evaluates EPI-driven phagocytosis and opsonophagocytic killing (OPK) of K. pneumoniae cells by murine bone-marrow-derived macrophages. FIG. 7A is a flow diagram depicting the assay used to evaluate EPI-driven opsonophagocytic killing (OPK) of K. pneumoniae cells. Briefly, K. pneumoniae cells (strain BAA 1705) opsonized by EPIs (AR-PCCs) and anti-DNP antibodies were incubated with macrophages for 1 or 24 h. Macrophages were lysed, and the lysate was plated to obtain bacterial colonies that were subsequently counted. FIG. 7B is a plot of colony counts for various samples subjected to the OPK assay. […] All EPIs (AR-PCCs) were used at a 5 μM concentration, measurements were conducted in triplicate, and error bars reflect standard deviations. cy(LLFFA) is SEQ ID NO:11.
It also tested whether DNP-conjugated EPIs could promote the opsonophagocytic killing (OPK) of K. pneumoniae by macrophages. This was tested by using an OPK assay. Briefly, K. pneumoniae cells were treated with EPI and then anti-DNP antibody before being exposed to macrophages for either 6 or 24 hours. During this incubation period, macrophages that recognize K. pneumoniae cells will phagocytose them, and phagocytosed bacteria will remain viable for up to 6 hours, but within 24 hours are rendered inviable by OPK. Thus, macrophages were isolated after 6 and 24 hours of incubation with K. pneumoniae, lysed them, and plated and grew the lysate, which yielded bacterial colonies that reflect the phagocytosis (at 6 hrs) or OPK (at 24 hrs) of bacteria.
Given that cy(LLFFF)-DNP (SEQ ID NO:5) recruits antibodies to K. pneumoniae surfaces, it was expected that K. pneumoniae opsonized in this manner would be more susceptible to phagocytosis by macrophages. AR-PCC-driven phagocytosis and OPK were quantified by a gentamicin protection assay, as depicted in FIG. 7A. For this assay, K. pneumoniae cells (strain BAA 1705) were treated with cy(LLFFF)-DNP (SEQ ID NO:5), opsonized by anti-DNP antibodies, and then incubated with murine bone-marrow-derived macrophages (BMDMs). BMDMs were subsequently exposed to a solution containing gentamicin, to which K. pneumoniae strain BAA 1705 is susceptible, to kill any extracellular bacteria. Phagocytosed bacteria remain viable inside BMDMs for at least 1 h, yet are rendered inviable after 24 h by OPK (FIG. 13). Macrophages harvested at 1 h and 24 h were lysed and plated to generate bacterial colonies, which were enumerated to quantify phagocytosis and OPK.
Opsonophagocytic killing (OPK) assays. Klebsiella pneumoniae BAA1705 was treated with DNP-PCCs followed by incubation with anti-DNP antibody, as described above in the “Cell-Based ELISAs” section. These opsonized bacteria were then used to infect BMDMs at a multiplicity of infection of 50 for 0.5 h at 37° C. Bacteria were then washed by using RPMI 1640 Media and BMDMs were left in cell culture medium containing gentamicin (100 μg/ml). After 1 h and 24 h BMDMs were washed to remove gentamicin and intracellular bacteria were harvested by lysing BMDMs in RPMI media containing 0.2% Triton X 100. Bacterial CFUs were enumerated by plating onto LB agar. Bacterial counts at 1 h indicated the degree of opsonization while those at 24 h served as a measure of microbicidal activity of macrophages. For these measurements, anti-MrkA antibody and K. pneumoniae antiserum were used at dilutions of 5 μg/mL each.

[5] = test system: MrkA-expressing K. pneumoniae cells; assay: Whole-cell ELISA of biotinylated PCC binding; conditions: biotinylated PCC at 5 μM

T1 sequence (P12267 23-202): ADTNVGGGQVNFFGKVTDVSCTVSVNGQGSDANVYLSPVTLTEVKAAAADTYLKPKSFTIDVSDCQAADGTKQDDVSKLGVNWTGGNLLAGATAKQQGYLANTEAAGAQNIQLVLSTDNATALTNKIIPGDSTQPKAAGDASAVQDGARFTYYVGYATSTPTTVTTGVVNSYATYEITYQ

Ref. compound (LLFFF; not fully specified (bridges); printed as cy(LLFFF); also: cyclised (cy), ring-closing ends (Pra and azidolysine) not shown in this chain)
Relative affinity (ratio of ELISA signal versus cy(LLFFF)) ([1]; ELISA 1, [MrkA] for ELISA N/A): 1.00
Relative affinity (ratio of ELISA signal versus cy(LLFFF)) ([1]; [MrkA] for ELISA 25 nM (ELISA 2, 5, 6)): 1.00
Relative affinity (ratio of ELISA signal versus cy(LLFFF)) ([1]; [MrkA] for ELISA 50 nM (ELISA 3)): 1.00
Relative affinity (ratio of ELISA signal versus cy(LLFFF)) ([1]; [MrkA] for ELISA 100 nM (ELISA 4)): 1.00
Isocratic point (%) ([2]; N-terminal tag Bio-Peg10-peg10-): 74.53%
Isocratic point (%) ([2]; N-terminal tag Bio-peg5-): 78.85%
Isocratic point (%) ([2]; N-terminal tag Bio-peg10-): 75.88%

cy(HNGPT): non-MrkA-binding dummy ligand ([Lys(N3)]HNGPT[Pra]; triazole 1-7) [reference compound]
fluorescence of cells (opsonization by anti-DNP) [3]: Slightly greater fluorescence
CFU at 6 hrs, DNP-conjugated EPI and anti-DNP antibody ([4]; macrophages harvested at 6 hrs): did not promote any phagocytosis
cell counts at 6 hrs, DNP-conjugated EPI without antibody ([4]; macrophages harvested at 6 hrs): ~35,000
whole-cell ELISA signal, K. pneumoniae BAA 1705 and BAA 2146 [5]: comparably lower signal; also recorded: no or minimal binding above baseline

cy(LLFFA)-DNP: DNP-conjugated control cy(LLFFA) ([Lys(N3)]LLFFAX; triazole 1-7; not fully specified (residue 7); printed as cy(LLFFA); also: DNP label)
phagocytosis / OPK activity at 1 h, AR-PCC plus anti-DNP ([4]; AR-PCC 5 μM, 1 h): None of these treatments elicited phagocytosis above basal levels
phagocytosis at 1 h, AR-PCC only (no anti-DNP) ([4]; AR-PCC 5 μM, 1 h): None of these treatments elicited phagocytosis above basal levels

cy(LLFFF)+R6
binding of MrkA protein in mouse sera ([1]; MrkA protein at 250 nM in 10 and 100% mouse sera): binds MrkA protein in the context of sera; also recorded: bound MrkA protein in solutions of 10 and 100% mouse sera, albeit at lower levels versus 0% serum
stronger affinity to MrkA over cy(LLFFF) ([1]; ratio of ELISA signals to cy(LLFFF) reference on same plate): 22%
reduction / improvement in IP versus cy(LLFFF) [2]: ~35%
isocratic point (IP) ([2]; elution from C18 prep-scale column): ~40%
whole-cell ELISA signal, K. pneumoniae BAA 1705 and BAA 2146 [5]: similarly high selectivity towards MrkA-expressing cells

cy(LLFFF)+R6-DNP: optimized compound cy(LLFFF)+R6 tagged with DNP ([Lys(N3)]LLFFF[Pra]RRRRRR; bridge 1-7; not fully specified (bridges); also: tagged with DNP, position not given here)
phagocytosis / OPK activity at 1 h, AR-PCC plus anti-DNP ([4]; AR-PCC 5 μM, 1 h): comparable to that of cy(LLFFF)-DNP
phagocytosis at 1 h, AR-PCC only (no anti-DNP) ([4]; AR-PCC 5 μM, 1 h): None of these treatments elicited phagocytosis above basal levels
colony counts at 1 h, AR-PCC plus anti-DNP antibody ([4]; AR-PCC 5 μM, murine BMDMs, 1 h): 85,000 CFU
